In patent publication US20240067706A1 (published 2024):

Legend:
Test in all cases: BLI
[1] = biological target: SARS-CoV-2 S protein (full-length S protein, soluble, purified in vitro) (SARS-CoV-2, UniProt P0DTC2 16-1213)
[2] = biological target: SARS-CoV S protein (soluble, purified in vitro) (SARS-CoV, UniProt P59594 14-1195)
[3] = biological target: T1, MERS-CoV S protein (soluble, purified in vitro) (MERS-CoV, UniProt K9N5Q8 18-1297)
T1 chain: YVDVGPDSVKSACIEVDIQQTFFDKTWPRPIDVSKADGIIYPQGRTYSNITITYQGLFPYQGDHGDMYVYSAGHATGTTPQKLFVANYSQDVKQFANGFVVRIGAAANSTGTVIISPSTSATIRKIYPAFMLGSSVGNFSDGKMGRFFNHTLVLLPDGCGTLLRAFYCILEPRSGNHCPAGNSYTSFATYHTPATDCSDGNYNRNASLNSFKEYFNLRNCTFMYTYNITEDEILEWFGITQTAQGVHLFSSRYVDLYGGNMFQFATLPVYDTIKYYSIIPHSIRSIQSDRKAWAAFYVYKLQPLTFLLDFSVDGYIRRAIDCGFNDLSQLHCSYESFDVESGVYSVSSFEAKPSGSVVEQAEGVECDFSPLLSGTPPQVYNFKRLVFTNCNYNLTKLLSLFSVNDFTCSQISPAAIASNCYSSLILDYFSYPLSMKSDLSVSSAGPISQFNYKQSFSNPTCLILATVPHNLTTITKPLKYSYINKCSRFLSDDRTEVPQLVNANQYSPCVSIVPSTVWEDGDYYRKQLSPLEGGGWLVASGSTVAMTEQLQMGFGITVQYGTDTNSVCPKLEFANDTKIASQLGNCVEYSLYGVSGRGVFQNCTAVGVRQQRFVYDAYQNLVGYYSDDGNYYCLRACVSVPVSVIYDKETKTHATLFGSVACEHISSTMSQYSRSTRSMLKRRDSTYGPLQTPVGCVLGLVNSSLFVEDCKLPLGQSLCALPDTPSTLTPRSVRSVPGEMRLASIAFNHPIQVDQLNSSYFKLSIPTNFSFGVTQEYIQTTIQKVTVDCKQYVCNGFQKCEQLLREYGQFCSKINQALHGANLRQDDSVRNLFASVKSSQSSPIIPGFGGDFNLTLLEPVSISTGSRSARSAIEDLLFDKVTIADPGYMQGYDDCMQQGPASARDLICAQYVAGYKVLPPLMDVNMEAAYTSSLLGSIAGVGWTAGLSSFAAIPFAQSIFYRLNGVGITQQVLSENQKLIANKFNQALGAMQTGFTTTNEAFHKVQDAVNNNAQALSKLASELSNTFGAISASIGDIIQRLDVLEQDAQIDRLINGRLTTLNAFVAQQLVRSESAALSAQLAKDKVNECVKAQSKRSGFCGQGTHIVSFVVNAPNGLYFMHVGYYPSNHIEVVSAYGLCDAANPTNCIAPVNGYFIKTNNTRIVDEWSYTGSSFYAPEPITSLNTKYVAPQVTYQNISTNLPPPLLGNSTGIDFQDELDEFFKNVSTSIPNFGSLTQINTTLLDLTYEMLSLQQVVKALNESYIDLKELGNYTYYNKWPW

B1: fully human monoclonal antibody 76E1 (antibody, V domains shown)
VH: EVQLVESGGGVVQPGGSLRLSCEASGFSFKDYGMHWIRQTPGKGLEWISRISGDTRGTSYVDSVKGRFIVSRDNSRNSLFLQMNSLRSEDTALYYCAALVIVAAGDDFDLWGQGTVVTVSS
VL: QSALTQPLSVSGSPGQSVTISCTGSSSDIGSYNFVSWYRQYPGKAPKVMIYEVNKRPSGVPVRFSGSKSGNTASLTVSGLQHEDEADYYCCSYGGRNNLIFGGGTKLTVL
Question: How did the Kd [1] turn out when B1 was run?
Answer: 0.431 nM

Question: What about the Kd [2] of the same binder?
Answer: 0.107 nM

Question: And the Kd [3]?
Answer: 1.03 nM
